The target of this assay is T1, aIF2-γ subunit of translation initiation factor aIF2, recombinant, His-tagged (Sulfolobus solfataricus, UniProt Q980A5 1-415).
T1 construct: translation initiation factor 2 subunit gamma (aIF2-γ), Sulfolobus solfataricus
T1 sequence (looked up): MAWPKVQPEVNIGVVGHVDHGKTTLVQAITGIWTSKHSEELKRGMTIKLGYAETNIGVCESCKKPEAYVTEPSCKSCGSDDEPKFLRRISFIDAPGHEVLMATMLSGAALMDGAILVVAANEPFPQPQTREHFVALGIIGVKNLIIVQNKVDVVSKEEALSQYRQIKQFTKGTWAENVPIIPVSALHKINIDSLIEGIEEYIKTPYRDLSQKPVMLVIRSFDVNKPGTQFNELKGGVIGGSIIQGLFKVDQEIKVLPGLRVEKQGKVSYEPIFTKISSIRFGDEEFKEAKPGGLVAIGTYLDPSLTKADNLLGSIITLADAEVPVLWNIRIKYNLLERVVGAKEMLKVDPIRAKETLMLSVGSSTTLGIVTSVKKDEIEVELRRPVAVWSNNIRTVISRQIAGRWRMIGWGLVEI
Nature of the assay: native gel or EMSA; acidic native polyacrylamide gel electrophoresis of the individual aIF2 subunits and the trimeric complex (Supplementary Figure S3, lanes 1-4). The conditions noted are these: both partners purified.

B1: aIF2-β subunit of translation initiation factor aIF2, recombinant, His-tagged (natural protein, Sulfolobus solfataricus, UniProt Q97W59 1-139, looked up)
chain: MSSEKEYVEMLDRLYSKLPEKGRKEGTQSLPNMIILNIGNTTIIRNFAEYCDRIRREDKICMKYLLKELAAPGNVDDKGELVIQGKFSSQVINTLMERFLKAYVECSTCKSLDTILKKEKKSWYIVCLACGAQTPVKPL
notes: translation initiation factor 2 subunit beta (aIF2-β), Sulfolobus solfataricus; also called aIF2-ß
B1: the binding result is “binds”.

B2: aIF2-α subunit of translation initiation factor aIF2, recombinant, His-tagged (natural protein, Sulfolobus solfataricus, UniProt Q97Z79 1-266, looked up)
chain: MIYSRSKLPSEGEILIATVKQVFDYGSYVSLDEYGGLQAFLPWSEVSSKWVKNIRDVLKENRKVIVKVIRVDRRKGTVDVSLKKVTDDERRKKNLQWKKIQRLDKILELVSQKLKLSEKDAWEQVAWKLEAKYGDPITAIEKAVKEGEKILIDAGVPEIWVKPLLEEASKHAEERKVKMSGLITVRTNEPLGVEKIKEVISKALENIEQDYESLLNIKIYTIGAPRYRVDVVGTNPKEASEALNQIISNLIKIGKEENVDISVVKK
notes: translation initiation factor 2 subunit alpha (aIF2-α), Sulfolobus solfataricus
As to B2, the binding result is “binds”.

(Values after publication PMC3936769, “Back to translation: removal of aIF2 from the 5′-end of mRNAs by translation recovery factor in the crenarchaeon Sulfolobus solfataricus” (Nucleic Acids Research, 2013).)
